According to US20180312587A1 (ADURO BIOTECH HOLDINGS EUROPE B V, published 2018):

Assays:
human SIRPα variant 1 = target: T1, human SIRPα variant 1 (human, UniProt P78324 31-504); experiment: CELISA, CHO-K1 transfectants; average of two experiments
T1 construct: full length ORF on transfected CHO-K1 or HEK293 cells; entry includes the signal peptide; also called hSIRPαV1; SIRPαV1
Procedure, shortened: (§1)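 Transiently transfected CHO-K1 cells expressing full-length target, grown to confluence, incubated 1 h at 37° C with humanized antibodies (from 10 μg/mL, serially diluted). Bound antibody detected with anti-IgG-HRP and TMB, absorbance 450/610 nm. EC50 from binding curves.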

human SIRPα variant 2 = target: T2, human SIRPα variant 2 (human, UniProt P78324 31-504); experiment: as above
T2 construct: full length ORF on transfected CHO-K1 cells; also called hSIRPαV2; SIRPαV2
Procedure, shortened: as §1

hSIRP-VβC1γC2β = target: T3, hSIRP-VβC1γC2β (human, UniProt O00241 30-398); experiment: CELISA, CHO-K1 transfectants, domain exchange study; nd = not detected
T3 chain: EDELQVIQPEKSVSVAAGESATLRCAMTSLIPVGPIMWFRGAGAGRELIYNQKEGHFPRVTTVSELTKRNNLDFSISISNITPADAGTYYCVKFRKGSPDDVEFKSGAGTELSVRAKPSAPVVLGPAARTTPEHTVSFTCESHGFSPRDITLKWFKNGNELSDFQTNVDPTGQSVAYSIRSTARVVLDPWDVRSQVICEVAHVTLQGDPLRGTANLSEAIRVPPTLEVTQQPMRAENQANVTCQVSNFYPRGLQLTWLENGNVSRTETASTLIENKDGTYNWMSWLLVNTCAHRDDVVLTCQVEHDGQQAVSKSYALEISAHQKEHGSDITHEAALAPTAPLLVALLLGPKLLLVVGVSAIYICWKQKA
Description: (§2) Based on the fold of SIRPα/β1/γ, the extracellular region can be subdivided into three separate domains: the Ig-like (immunoglobulin-like) V-type (IgV), Ig-like C1-type (IgC1), and Ig-like C2-type (IgC2) domain. The IgV domain is also known as the ligand-binding N-terminal domain of SIRPα and SIRPγ (which binds to CD47). The human SIRPβ1/γ mutants were designed based on the full length hSIRPβ1 sequence (SEQ ID NO: 38) and each individual Ig-like domain was substituted for the equivalent domain of human SIRPγ (SEQ ID NO: 40). […] Binding of hSIRPα.40A to the exchange mutants was tested using CELISA. To this end, CHO-K1 cells were transiently transfected, using Lipofectamine 2000, with the pCI-neo vectors encoding hSIRPαV1, hSIRPαV2, hSIRPβ1, hSIRP-VγC1βC2β, hSIRP-VβC1γC2β, and hSIRP-VβC1βC2γ, respectively. The transfected cells were cultured at 37° C., 5% CO₂ and 95% humidity in medium (DMEM-F12 (Gibco) with 5% New Born Calf serum (Biowest) and Pen/Strep (Gibco)) until confluent. Subsequently, cells were trypsinized and seeded in 96-well flat-bottom tissue culture plates and cultured at 37° C., 5% CO₂ and 95% humidity in culture medium until confluent. […] Reactions were stopped with 0.5 M H₂SO₄ and absorbances were read at 450 and 610 nm.

hSIRP-VβC1βC2γ = target: T4, hSIRP-VβC1βC2γ (human, UniProt O00241 30-398); experiment: as above
T4 chain: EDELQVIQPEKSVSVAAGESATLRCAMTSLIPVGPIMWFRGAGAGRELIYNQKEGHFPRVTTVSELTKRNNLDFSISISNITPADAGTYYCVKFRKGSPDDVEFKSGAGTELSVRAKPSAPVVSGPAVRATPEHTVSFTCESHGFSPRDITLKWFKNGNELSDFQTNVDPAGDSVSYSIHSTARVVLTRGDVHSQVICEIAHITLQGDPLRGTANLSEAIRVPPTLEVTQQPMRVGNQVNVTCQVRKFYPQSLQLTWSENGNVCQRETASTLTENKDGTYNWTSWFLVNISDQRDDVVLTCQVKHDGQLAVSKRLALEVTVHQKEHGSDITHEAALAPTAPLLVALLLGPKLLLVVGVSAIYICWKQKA
Description: as §2

T2 sequence (P78324 other isoform, or with tags, fused parts or gaps mutant limits assumed): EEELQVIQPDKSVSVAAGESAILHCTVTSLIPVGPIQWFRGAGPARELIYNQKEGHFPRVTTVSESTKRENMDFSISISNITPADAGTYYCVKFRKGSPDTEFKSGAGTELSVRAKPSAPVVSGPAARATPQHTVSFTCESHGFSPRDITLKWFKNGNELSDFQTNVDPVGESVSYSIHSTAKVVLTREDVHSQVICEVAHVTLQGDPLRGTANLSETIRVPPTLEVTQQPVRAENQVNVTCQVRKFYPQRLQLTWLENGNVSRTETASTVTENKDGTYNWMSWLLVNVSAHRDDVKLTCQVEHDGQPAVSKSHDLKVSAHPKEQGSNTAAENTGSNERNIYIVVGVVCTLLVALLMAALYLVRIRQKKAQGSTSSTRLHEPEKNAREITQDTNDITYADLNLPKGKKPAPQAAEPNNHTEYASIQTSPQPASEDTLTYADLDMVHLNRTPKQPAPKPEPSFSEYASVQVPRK
T1 sequence (P78324 31-504 limits assumed, change not shown): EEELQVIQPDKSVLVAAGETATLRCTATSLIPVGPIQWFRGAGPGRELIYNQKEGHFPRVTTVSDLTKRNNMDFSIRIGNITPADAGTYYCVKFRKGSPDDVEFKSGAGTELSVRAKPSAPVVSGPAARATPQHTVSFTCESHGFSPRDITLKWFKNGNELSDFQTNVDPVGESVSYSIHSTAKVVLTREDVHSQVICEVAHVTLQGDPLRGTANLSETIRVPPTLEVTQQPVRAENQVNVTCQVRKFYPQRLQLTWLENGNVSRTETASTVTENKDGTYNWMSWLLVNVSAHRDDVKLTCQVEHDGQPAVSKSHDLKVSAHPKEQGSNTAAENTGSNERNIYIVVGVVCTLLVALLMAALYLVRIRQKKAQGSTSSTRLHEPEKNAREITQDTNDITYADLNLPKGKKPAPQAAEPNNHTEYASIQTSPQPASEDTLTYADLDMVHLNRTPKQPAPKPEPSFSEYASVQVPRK

- EC50 (human SIRPα variant 1): 1.36 nM
- EC50 (human SIRPα variant 2): 1.3 nM
- binding result (hSIRP-VβC1γC2β): no binding
- binding result (hSIRP-VβC1βC2γ): no binding
B1: hSIRPα.50A (antibody, V domains shown)
VH: QVQLQQSGPELVKPGASVRISCKASGFTFTNYYIHWVKQRPGQGLEWIGWIYPGNVNTKYNEKFKAKATLTADKSSTTAYMQLSSLASEDSAVYFCARPTIIATDFDVWGAGTTVTVSS
VL: DIVMTQSHKFMSTSVGDRVNITCKASQGVGTAVGWYQQKPGQSPRLLIYWASTRHTGVPDRFTGSGSGTDFSLAISNVQSEDLADYFCQQYSTYPFTFGGGTNLEIK
notes: light chain constant domain not tied; also called mouse hSIRPα.50A; hSIRPα.50A.mIgG1
